Source: US20220227882A1 (TRUSTEES OF TUFTS COLLEGE, published 2022)

T1: A462S (Homo sapiens, UniProt P78325)
T1 construct: expressed on HEK293 cells; also called human ADAM8 point mutant A462S
T1 sequence (ADAM8, looked up): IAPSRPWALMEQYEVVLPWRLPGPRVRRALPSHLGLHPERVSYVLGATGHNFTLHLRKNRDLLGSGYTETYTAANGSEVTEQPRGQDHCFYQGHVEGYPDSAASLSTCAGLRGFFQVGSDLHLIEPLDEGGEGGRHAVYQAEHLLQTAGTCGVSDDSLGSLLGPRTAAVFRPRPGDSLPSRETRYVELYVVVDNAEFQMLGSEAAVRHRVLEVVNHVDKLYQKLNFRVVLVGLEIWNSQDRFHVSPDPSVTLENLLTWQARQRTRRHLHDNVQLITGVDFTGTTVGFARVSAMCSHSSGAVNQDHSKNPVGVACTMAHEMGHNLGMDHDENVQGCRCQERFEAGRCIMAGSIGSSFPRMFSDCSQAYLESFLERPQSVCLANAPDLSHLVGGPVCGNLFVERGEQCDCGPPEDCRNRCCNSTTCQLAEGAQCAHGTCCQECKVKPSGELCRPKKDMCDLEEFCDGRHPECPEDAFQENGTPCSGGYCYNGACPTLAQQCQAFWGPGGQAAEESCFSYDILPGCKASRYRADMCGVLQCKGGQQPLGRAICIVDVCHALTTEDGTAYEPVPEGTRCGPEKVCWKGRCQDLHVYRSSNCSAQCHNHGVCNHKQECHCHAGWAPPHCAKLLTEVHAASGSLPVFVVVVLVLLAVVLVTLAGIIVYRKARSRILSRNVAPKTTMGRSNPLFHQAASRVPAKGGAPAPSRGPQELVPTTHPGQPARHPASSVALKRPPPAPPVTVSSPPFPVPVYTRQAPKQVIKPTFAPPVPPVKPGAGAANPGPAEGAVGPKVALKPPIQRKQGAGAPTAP

T2: E444A (Homo sapiens, UniProt P78325)
T2 construct: expressed on HEK293 cells; also called human ADAM8 point mutant E444A
T2 sequence (ADAM8, looked up): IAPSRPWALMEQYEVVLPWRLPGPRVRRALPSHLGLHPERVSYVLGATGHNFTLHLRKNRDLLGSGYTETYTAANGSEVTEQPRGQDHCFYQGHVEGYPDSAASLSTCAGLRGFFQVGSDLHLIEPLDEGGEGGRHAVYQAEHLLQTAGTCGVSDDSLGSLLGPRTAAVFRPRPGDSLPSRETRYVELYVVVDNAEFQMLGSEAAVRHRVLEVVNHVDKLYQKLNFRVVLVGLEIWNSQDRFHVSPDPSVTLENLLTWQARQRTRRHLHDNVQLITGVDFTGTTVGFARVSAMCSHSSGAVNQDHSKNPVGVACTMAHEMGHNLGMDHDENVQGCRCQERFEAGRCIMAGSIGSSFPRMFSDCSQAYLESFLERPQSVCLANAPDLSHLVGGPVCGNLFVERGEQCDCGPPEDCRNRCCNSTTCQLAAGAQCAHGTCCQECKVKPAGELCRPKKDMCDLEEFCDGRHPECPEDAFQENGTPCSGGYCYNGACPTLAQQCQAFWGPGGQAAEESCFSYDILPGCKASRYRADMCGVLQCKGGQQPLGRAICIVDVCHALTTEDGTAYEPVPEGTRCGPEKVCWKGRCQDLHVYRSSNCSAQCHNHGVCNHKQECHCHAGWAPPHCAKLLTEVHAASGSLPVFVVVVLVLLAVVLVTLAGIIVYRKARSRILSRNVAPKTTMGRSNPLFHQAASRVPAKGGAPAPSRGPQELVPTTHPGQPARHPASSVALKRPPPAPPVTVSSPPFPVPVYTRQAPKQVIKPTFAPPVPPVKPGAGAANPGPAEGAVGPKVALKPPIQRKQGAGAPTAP


Columns and labels:
[1] = target: T1, A462S; assay: high-throughput flow cytometry, HEK293 cells with mutant ADAM8, high stringency; range in parentheses
Experimental: (§1) A variety of experimental parameters were optimized for high-throughput flow cytometry including blocking buffer, and primary and secondary antibody concentrations, to identify the optimal conditions for screening. Through these studies ADP2 and ADP13 were determined to be high affinity binding antibodies.
(§2) Thus, for these studies antigen-binding fragments (Fabs) of ADP2 and ADP13, which bind with lower affinity than the full antibody, were generated. In addition, higher binding stringency conditions were tested, such as increased pH, salinity, and temperature, and/or increased washing, to weaken binding sufficiently to allow identification of critical binding residues in flow cytometry. The final experimental flow cytometry conditions were: primary antibody incubation with ADP2 Fab (0.50 μg/ml), ADP13 Fab (5.00 μg/ml) and Control Ab (0.16 μg/ml) for 60 minutes in flow cytometry buffer containing 10% goat serum in PBS (Ca²⁺ and Mg²⁺ free). […] Samples were washed three times after primary antibody incubation and twice after secondary antibody incubation with PBS (Ca²⁺ and Mg′ free). Next, HEK293 cells expressing WT or mutated ADAM8 proteins or EV DNA were incubated with ADP2 or ADP13 Fabs or Control Ab at their optimal concentrations. Fab binding was detected using Alexa Fluor 488-conjugated secondary antibodies and mean cellular fluorescence determined using the Intellicyt iQue flow cytometry platform. […] This counter-screen strategy facilitates the exclusion of mutants that are locally misfolded or that have an expression defect. Binding of each test Fab to each mutant clone in the alanine scanning library was determined, in duplicate, by high-throughput flow cytometry.

[2] = target: T2, E444A; assay: as above
Experimental: as §1, §2

Binding Reactivity (% WT) [1] [% WT] | Binding Reactivity (% WT) [2] [% WT] | Binder
50.1 |  | ADP2 Fab (Fab, V domains shown) VH: EVKLVESGGGLVQPGGSLSLSCAASGFSFPDYYMSWVRQPPGKALEWLGFIRDSANGYTTEYIASVKGRFTFSRDNSQSILYLQMNALRAEDSATYYCARYSRYYGMDYWGQGTSVTVSS VL: SIVMTQTPKILLVSAGDRVTITCKASQTVNYDVAWYQQKPGQSPKPVIYFASNRYTGVPDRFTGSGFGTDFTFTISTVQAEDLAVYFCQQDYSAPWTFGGGTKLEIK
 | 70.8 | ADP13 Fab (Fab, V domains shown) VH: EVQLQQSGPEMVKPGTSVKISCKASGYTFTDYYINWVKQSHGKSLEWIGDISPNIGGATYNPKFKGKAILTVDKSARTAYMELRSLTSEDSAVYCCTRGGSSYPYFYAMDYWGQGTSVTVSS VL: DIVMSQSPSSLAVSVGEKVTMSCKSSQSLLYSSNQKKYLAWYQQKPGQSPKLLIYWASTRESGVPDRFTGSGSGTDFTLTISSVKAEDLAVYYCQQFYSYPYTFGGGTKLEINR
